# Assay results as given in article PMC2931692.
# Target: soluble HA of A/Aichi/2/68 (H3N2) modified at the C-terminus with the GCN4pII trimerization repeat (influenza A virus A/Aichi/2/68 (H3N2) | Saccharomyces cerevisiae) (UniProt P03437)
# Assay: cross-linking
substance,measurement,value
soluble HA of A/Aichi/2/68 (H3N2) modified at the C-terminus with the GCN4pII trimerization repeat (from UniProt P03437 17-528),stoichiometry N,3
